Target: T1, glutathione S-transferase (GST)-L5 (S. cerevisiae, UniProt P26321 1-297)
T1 sequence (looked up): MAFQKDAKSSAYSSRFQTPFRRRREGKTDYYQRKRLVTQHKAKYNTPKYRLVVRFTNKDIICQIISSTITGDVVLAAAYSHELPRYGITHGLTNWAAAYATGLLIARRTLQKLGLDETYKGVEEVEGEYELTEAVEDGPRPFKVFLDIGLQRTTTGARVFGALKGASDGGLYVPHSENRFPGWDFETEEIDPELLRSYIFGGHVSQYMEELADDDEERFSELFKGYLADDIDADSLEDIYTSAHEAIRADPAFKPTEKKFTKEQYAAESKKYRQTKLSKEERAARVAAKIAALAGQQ
Assay: pull-down

binding result: binds
B1: maltose-binding protein (MBP)-Rrs1p (natural protein, S. cerevisiae, UniProt Q08746 1-203, looked up)
chain: MSAEDYKNLPVTVEKPIPVVYDLGNLAAFDSNVLDKNDLDSSNARREEKIKSLTRDNVQLLINQLLSLPMKTTTESVGGTGGQSSVMTLLQLPDPTTDLPREKPLPKAKAMTKWEKFAAKKGIKPKERAGKMIYDEASGEWVPKWGYKGANKKLDDQWLVEVDDKVKGTDNELIDPRTLNRAERKRLVKKNEKQQRRNMKNAL

Source: PMC1185577 (Nucleic Acids Research, 2005)
